Assay results published in paper PMC10397247.

What was measured:
4H491-bH = target: T1, 4H491-bH; experiment: two-hybrid library CCNG1;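 note: natural log of median RNA to DNA barcode read ratio; higher means stronger binding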
T1 chain: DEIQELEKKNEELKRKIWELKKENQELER

P11A-bA = target: T2, P11A-bA; experiment: two-hybrid library CCNG1;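 note: natural log of median RNA to DNA barcode read ratio; higher means stronger binding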
T2 chain: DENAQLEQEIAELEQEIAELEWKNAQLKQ

4H134-AA = target: T3, 4H134-AA; experiment: two-hybrid library CCmax;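 note: natural log of median RNA to DNA barcode read ratio; higher means stronger binding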
T3 chain: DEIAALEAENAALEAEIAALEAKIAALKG

4H1350-AA = target: T4, 4H1350-AA; experiment: two-hybrid library CCmax; conditions: mean of both orientations;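 note: natural log of median RNA to DNA barcode read ratio; higher means stronger binding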
T4 chain: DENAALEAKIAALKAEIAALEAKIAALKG

4H1385-AA = target: T5, 4H1385-AA; experiment: two-hybrid library CCmax; conditions: mean of both orientations;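 note: natural log of median RNA to DNA barcode read ratio; higher means stronger binding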
T5 chain: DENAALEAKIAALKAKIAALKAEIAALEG

4H1392-AA = target: T6, 4H1392-AA; experiment: two-hybrid library CCmax; conditions: mean of both orientations;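 note: natural log of median RNA to DNA barcode read ratio; higher means stronger binding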
T6 chain: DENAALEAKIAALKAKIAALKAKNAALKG

4H2622-AA = target: T7, 4H2622-AA; experiment: two-hybrid library CCmax; conditions: mean of both orientations
T7 chain: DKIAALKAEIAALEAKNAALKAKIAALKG

4H2705-AA = target: T8, 4H2705-AA; experiment: two-hybrid library CCmax; conditions: mean of both orientations
T8 chain: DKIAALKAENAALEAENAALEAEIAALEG

4H2736-AA = target: T9, 4H2736-AA; experiment: two-hybrid library CCmax; conditions: mean of both orientations
T9 chain: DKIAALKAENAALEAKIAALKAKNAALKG

4H2888-AA = target: T10, 4H2888-AA; experiment: two-hybrid library CCmax; conditions: mean of both orientations
T10 chain: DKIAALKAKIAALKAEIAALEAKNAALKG

4H3049-AA = target: T11, 4H3049-AA; experiment: two-hybrid library CCmax; conditions: mean of both orientations
T11 chain: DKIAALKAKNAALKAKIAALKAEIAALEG

4H337-AA = target: T12, 4H337-AA; experiment: two-hybrid library CCmax; conditions: mean of both orientations
T12 chain: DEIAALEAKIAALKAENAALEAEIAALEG

4H3587-AA = target: T13, 4H3587-AA; experiment: two-hybrid library CCmax; conditions: mean of both orientations
T13 chain: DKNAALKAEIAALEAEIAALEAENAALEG

4H3590-AA = target: T14, 4H3590-AA; experiment: two-hybrid library CCmax; conditions: mean of both orientations
T14 chain: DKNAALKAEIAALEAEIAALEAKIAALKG

4H3625-AA = target: T15, 4H3625-AA; experiment: two-hybrid library CCmax; conditions: mean of both orientations
T15 chain: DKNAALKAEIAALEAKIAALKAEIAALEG

4H384-AA = target: T16, 4H384-AA; experiment: two-hybrid library CCmax; conditions: mean of both orientations
T16 chain: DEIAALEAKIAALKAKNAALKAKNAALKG

4H3905-AA = target: T17, 4H3905-AA; experiment: two-hybrid library CCmax; conditions: mean of both orientations
T17 chain: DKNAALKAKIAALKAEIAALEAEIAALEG

4H4038-AA = target: T18, 4H4038-AA; experiment: two-hybrid library CCmax; conditions: mean of both orientations
T18 chain: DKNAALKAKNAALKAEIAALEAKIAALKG

4H43-AA = target: T19, 4H43-AA; experiment: two-hybrid library CCmax; conditions: mean of both orientations
T19 chain: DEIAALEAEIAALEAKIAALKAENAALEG

4H451-AA = target: T20, 4H451-AA; experiment: two-hybrid library CCmax; conditions: mean of both orientations
T20 chain: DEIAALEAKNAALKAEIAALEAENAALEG

4H510-AA = target: T21, 4H510-AA; experiment: two-hybrid library CCmax; conditions: mean of both orientations
T21 chain: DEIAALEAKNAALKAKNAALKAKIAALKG

4H_APH = target: T22, 4H_APH; experiment: two-hybrid library CCmax; conditions: mean of both orientations
T22 chain: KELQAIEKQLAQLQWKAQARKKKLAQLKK

4H_BCR = target: T23, 4H_BCR; experiment: two-hybrid library CCmax
T23 chain: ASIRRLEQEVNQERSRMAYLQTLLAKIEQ

4H_GCN4 = experiment: two-hybrid library CCmax
GCN2_T = experiment: two-hybrid library CCmax; conditions: mean of both orientations
O11-AA = target: T24, O11-AA; experiment: two-hybrid library CCmax; conditions: mean of both orientations
T24 chain: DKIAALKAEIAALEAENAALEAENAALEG

O13-AA = target: T25, O13-AA; experiment: two-hybrid library CCmax; conditions: mean of both orientations
T25 chain: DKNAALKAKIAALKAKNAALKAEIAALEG

O14-AA = target: T26, O14-AA; experiment: two-hybrid library CCmax; conditions: mean of both orientations
T26 chain: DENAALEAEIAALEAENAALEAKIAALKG

4H1103-AA = target: T27, 4H1103-AA; experiment: two-hybrid library CCmax
T27 chain: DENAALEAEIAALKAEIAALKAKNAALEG

4H1198-AA = target: T28, 4H1198-AA; experiment: two-hybrid library CCmax; conditions: mean of both orientations
T28 chain: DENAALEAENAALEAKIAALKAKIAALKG

4H1405-AA = target: T29, 4H1405-AA; experiment: two-hybrid library CCmax; conditions: mean of both orientations
T29 chain: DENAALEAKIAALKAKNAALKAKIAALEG

4H2211-AA = target: T30, 4H2211-AA; experiment: two-hybrid library CCmax
T30 chain: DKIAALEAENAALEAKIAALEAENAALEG

4H2238-AA = target: T31, 4H2238-AA; experiment: two-hybrid library CCmax; conditions: mean of both orientations
T31 chain: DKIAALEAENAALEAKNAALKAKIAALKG

4H2513-AA = target: T32, 4H2513-AA; experiment: two-hybrid library CCmax; conditions: mean of both orientations
T32 chain: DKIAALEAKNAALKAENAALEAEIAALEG

4H2536-AA = target: T33, 4H2536-AA; experiment: two-hybrid library CCmax; conditions: mean of both orientations
T33 chain: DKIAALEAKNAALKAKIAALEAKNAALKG

4H2608-AA = target: T34, 4H2608-AA; experiment: two-hybrid library CCmax; conditions: mean of both orientations
T34 chain: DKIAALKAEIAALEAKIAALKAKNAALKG

4H2614-AA = target: T35, 4H2614-AA; experiment: two-hybrid library CCmax; conditions: mean of both orientations
T35 chain: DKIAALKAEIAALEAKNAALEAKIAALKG

4H2726-AA = target: T36, 4H2726-AA; experiment: two-hybrid library CCmax; conditions: mean of both orientations
T36 chain: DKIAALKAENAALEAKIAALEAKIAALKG

4H2935-AA = target: T37, 4H2935-AA; experiment: two-hybrid library CCmax; conditions: mean of both orientations
T37 chain: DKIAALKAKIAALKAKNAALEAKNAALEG

4H327-AA = target: T38, 4H327-AA; experiment: two-hybrid library CCmax
T38 chain: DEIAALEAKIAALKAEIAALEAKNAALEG

4H3605-AA = target: T39, 4H3605-AA; experiment: two-hybrid library CCmax; conditions: mean of both orientations
T39 chain: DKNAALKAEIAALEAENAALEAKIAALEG

4H3664-AA = target: T40, 4H3664-AA; experiment: two-hybrid library CCmax; conditions: mean of both orientations
T40 chain: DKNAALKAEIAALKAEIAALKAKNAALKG

4H369-AA = target: T41, 4H369-AA; experiment: two-hybrid library CCmax; conditions: mean of both orientations
T41 chain: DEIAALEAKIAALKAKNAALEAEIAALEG

4H3922-AA = target: T42, 4H3922-AA; experiment: two-hybrid library CCmax; conditions: mean of both orientations
T42 chain: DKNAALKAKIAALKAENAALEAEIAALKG

4H4033-AA = target: T43, 4H4033-AA; experiment: two-hybrid library CCmax; conditions: mean of both orientations
T43 chain: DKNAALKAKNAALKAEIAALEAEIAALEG

4H481-AA = target: T44, 4H481-AA; experiment: two-hybrid library CCmax; conditions: mean of both orientations
T44 chain: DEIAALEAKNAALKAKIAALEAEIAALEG

4H55-AA = target: T45, 4H55-AA; experiment: two-hybrid library CCmax; conditions: mean of both orientations
T45 chain: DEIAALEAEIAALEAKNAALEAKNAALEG

4H662-AA = target: T46, 4H662-AA; experiment: two-hybrid library CCmax; conditions: mean of both orientations
T46 chain: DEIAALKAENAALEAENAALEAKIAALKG

O11 = target: T47, O11; experiment: two-hybrid library CC0; conditions: mean of both orientations
T47 chain: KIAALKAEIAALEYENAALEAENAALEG

O12 = target: T48, O12; experiment: two-hybrid library CC0; conditions: mean of both orientations
T48 chain: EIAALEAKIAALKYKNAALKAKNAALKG

O13 = target: T49, O13; experiment: two-hybrid library CC0; conditions: mean of both orientations
T49 chain: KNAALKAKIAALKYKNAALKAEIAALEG

O14 = target: T50, O14; experiment: two-hybrid library CC0; conditions: mean of both orientations
T50 chain: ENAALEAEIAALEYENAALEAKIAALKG

O15 = target: T51, O15; experiment: two-hybrid library CC0; conditions: mean of both orientations
T51 chain: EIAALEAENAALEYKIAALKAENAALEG

O16 = target: T52, O16; experiment: two-hybrid library CC0; conditions: mean of both orientations
T52 chain: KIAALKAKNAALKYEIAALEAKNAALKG

O2 = target: T53, O2; experiment: two-hybrid library CC0; conditions: mean of both orientations
T53 chain: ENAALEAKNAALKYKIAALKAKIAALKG

O3 = target: T54, O3; experiment: two-hybrid library CC0; conditions: mean of both orientations
T54 chain: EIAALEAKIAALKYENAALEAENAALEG

O4 = target: T55, O4; experiment: two-hybrid library CC0; conditions: mean of both orientations
T55 chain: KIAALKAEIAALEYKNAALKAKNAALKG

O5 = target: T56, O5; experiment: two-hybrid library CC0; conditions: mean of both orientations
T56 chain: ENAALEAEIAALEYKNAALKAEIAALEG

O6 = target: T57, O6; experiment: two-hybrid library CC0; conditions: mean of both orientations
T57 chain: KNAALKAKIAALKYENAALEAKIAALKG

O7 = target: T58, O7; experiment: two-hybrid library CC0; conditions: mean of both orientations
T58 chain: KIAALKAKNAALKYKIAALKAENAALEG

O8 = target: T59, O8; experiment: two-hybrid library CC0; conditions: mean of both orientations
T59 chain: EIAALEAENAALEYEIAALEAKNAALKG

O9 = target: T60, O9; experiment: two-hybrid library CC0; conditions: mean of both orientations
T60 chain: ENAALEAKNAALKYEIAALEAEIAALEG

4H_GCN4, sequence (chain, as listed by the source): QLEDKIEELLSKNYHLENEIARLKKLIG

B1: 4H491-bH (peptide)
chain: DEIQELEKKNEELKRKIWELKKENQELER
- interaction score (4H491-bH): -1.32
- interaction score (P11A-bA): 0.405

B2: 4H134-AA (peptide)
chain: DEIAALEAENAALEAEIAALEAKIAALKG
- interaction score (4H134-AA): -0.374
- interaction score (4H1350-AA): 0.48
- interaction score (4H1385-AA): 2.21
- interaction score (4H1392-AA): 0.139
- interaction score (4H2622-AA): 2.38
- interaction score (4H2705-AA): -0.938
- interaction score (4H2736-AA): 0.536
- interaction score (4H2888-AA): 2.4
- interaction score (4H3049-AA): 1.84
- interaction score (4H337-AA): 0.273
- interaction score (4H3587-AA): 0.794
- interaction score (4H3590-AA): 0.654
- interaction score (4H3625-AA): 1.5
- interaction score (4H384-AA): 2.04
- interaction score (4H3905-AA): 1.17
- interaction score (4H4038-AA): 2
- interaction score (4H43-AA): -0.679
- interaction score (4H451-AA): 0.937
- interaction score (4H510-AA): 1.96
- interaction score (4H_APH): 1.96
- interaction score (4H_BCR): -0.839
- interaction score (4H_GCN4): 1.94
- interaction score (GCN2_T): 0.268
- interaction score (O11-AA): -1.36
- interaction score (O13-AA): 2.02
- interaction score (O14-AA): -0.533

B3: 4H1103-AA (peptide)
chain: DENAALEAEIAALKAEIAALKAKNAALEG
- interaction score (4H1103-AA): 1.1
- interaction score (4H1198-AA): -1.33
- interaction score (4H1350-AA): -0.275
- interaction score (4H1405-AA): -1.89
- interaction score (4H2211-AA): -1.7
- interaction score (4H2238-AA): -1.65
- interaction score (4H2513-AA): -1.55
- interaction score (4H2536-AA): -1.47
- interaction score (4H2608-AA): 0.0702
- interaction score (4H2614-AA): -1.01
- interaction score (4H2726-AA): -1.04
- interaction score (4H2935-AA): -1.16
- interaction score (4H327-AA): -0.714
- interaction score (4H3605-AA): -1.61
- interaction score (4H3625-AA): -0.923
- interaction score (4H3664-AA): 2.17
- interaction score (4H369-AA): -1.5
- interaction score (4H3922-AA): -1.44
- interaction score (4H4033-AA): 0.386
- interaction score (4H481-AA): -0.163
- interaction score (4H55-AA): -1.09
- interaction score (4H662-AA): -1.27

B4: O11 (peptide)
chain: KIAALKAEIAALEYENAALEAENAALEG
- interaction score (O11): -2.72
- interaction score (O12): 0.932
- interaction score (O13): -2.75
- interaction score (O14): -2.7
- interaction score (O15): -2.79
- interaction score (O16): -2.66
- interaction score (O2): -2.53
- interaction score (O3): -2.55
- interaction score (O4): 0.197
- interaction score (O5): -2.71
- interaction score (O6): -2.64
- interaction score (O7): -2.69
- interaction score (O8): -2.61
- interaction score (O9): -2.79
